According to publication PMC5601897, “The catalytic subunit of DNA polymerase δ inhibits γTuRC activity and regulates Golgi-derived microtubules” (Nature Communications, 2017):

Biological target: γ-tubulin ring complex (γTuRC), purified (human (endogenous in HEK293T), UniProt P23258 1-451; Q9BSJ2 1-902; Q96CW5 1-907; Q9UGJ1 1-667; Q96RT8 1-1024; Q96RT7 …)
Experiment: cell-based or functional assay

IC50 of inhibition of in vitro microtubule nucleation by purified γTuRCs reconstituted with CDK5RAP2(51–200) (28 nM); PolD1 at various concentrations: 98 nM
B1: recombinant FLAG-PolD1 (wild type), purified (natural protein, human, UniProt P28340 1-1107, looked up)
chain: MDGKRRPGPGPGVPPKRARGGLWDDDDAPRPSQFEEDLALMEEMEAEHRLQEQEEEELQSVLEGVADGQVPPSAIDPRWLRPTPPALDPQTEPLIFQQLEIDHYVGPAQPVPGGPPPSRGSVPVLRAFGVTDEGFSVCCHIHGFAPYFYTPAPPGFGPEHMGDLQRELNLAISRDSRGGRELTGPAVLAVELCSRESMFGYHGHGPSPFLRITVALPRLVAPARRLLEQGIRVAGLGTPSFAPYEANVDFEIRFMVDTDIVGCNWLELPAGKYALRLKEKATQCQLEADVLWSDVVSHPPEGPWQRIAPLRVLSFDIECAGRKGIFPEPERDPVIQICSLGLRWGEPEPFLRLALTLRPCAPILGAKVQSYEKEEDLLQAWSTFIRIMDPDVITGYNIQNFDLPYLISRAQTLKVQTFPFLGRVAGLCSNIRDSSFQSKQTGRRDTKVVSMVGRVQMDMLQVLLREYKLRSYTLNAVSFHFLGEQKEDVQHSIITDLQNGNDQTRRRLAVYCLKDAYLPLRLLERLMVLVNAVEMARVTGVPLSYLLSRGQQVKVVSQLLRQAMHEGLLMPVVKSEGGEDYTGATVIEPLKGYYDVPIATLDFSSLYPSIMMAHNLCYTTLLRPGTAQKLGLTEDQFIRTPTGDEFVKTSVRKGLLPQILENLLSARKRAKAELAKETDPLRRQVLDGRQLALKVSANSVYGFTGAQVGKLPCLEISQSVTGFGRQMIEKTKQLVESKYTVENGYSTSAKVVYGDTDSVMCRFGVSSVAEAMALGREAADWVSGHFPSPIRLEFEKVYFPYLLISKKRYAGLLFSSRPDAHDRMDCKGLEAVRRDNCPLVANLVTASLRRLLIDRDPEGAVAHAQDVISDLLCNRIDISQLVITKELTRAASDYAGKQAHVELAERMRKRDPGSAPSLGDRVPYVIISAAKGVAAYMKSEDPLFVLEHSLPIDTQYYLEQQLAKPLLRIFEPILGEGRAEAVLLRGDHTRCKTVLTGKVGGLLAFAKRRNCCIGCRTVLSHQGAVCEFCQPRESELYQKEVSHLNALEERFSRLWTQCQRCQGSLHEDVICTSRDCPIFYMRKKVRKDLEDQEQLLRRFGPPGPEAW
